Test results taken from paper PMC6434023, “A TonB-dependent transporter is required for secretion of protease PopC across the bacterial outer membrane” (Nature Communications, 2019).

Biological target: T1, PopC expressed in E. coli (M. xanthus, UniProt Q1DFT5 1-475)
T1 construct: PopC of Myxococcus xanthus, expressed as 'native' PopC in E. coli; no tag is named; 'Native' probably means the untagged whole protein; also called native PopC; source: E. coli Rosetta-2(DE3) (WT or ΔtonB), IPTG-induced, in isolated membranes / cell fractions
T1 sequence (looked up): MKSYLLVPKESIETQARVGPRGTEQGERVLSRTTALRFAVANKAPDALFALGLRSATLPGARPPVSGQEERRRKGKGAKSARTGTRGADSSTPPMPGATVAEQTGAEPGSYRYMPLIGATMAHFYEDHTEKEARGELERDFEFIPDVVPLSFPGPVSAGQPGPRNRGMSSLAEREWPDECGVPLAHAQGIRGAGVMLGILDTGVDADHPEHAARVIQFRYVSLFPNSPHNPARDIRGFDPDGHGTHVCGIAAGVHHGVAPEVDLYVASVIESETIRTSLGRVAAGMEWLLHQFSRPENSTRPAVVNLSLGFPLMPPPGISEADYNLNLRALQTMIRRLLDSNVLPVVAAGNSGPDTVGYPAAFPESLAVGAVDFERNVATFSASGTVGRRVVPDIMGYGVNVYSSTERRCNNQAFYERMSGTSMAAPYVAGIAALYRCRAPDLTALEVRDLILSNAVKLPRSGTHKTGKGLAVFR
Experiment: affinity purification with mass spectrometry; the co-IP samples (α-PopC on E. coli membranes, WT and ΔtonB) analysed by label-free quantitative MS; iBAQ ratio of Oar with PopC over without PopC, normalised to the input
Conditions: partners not purified

- fold enrichment of Oar in the α-PopC co-IP, with PopC over without PopC (iBAQ ratio), WT E. coli: 4.9 fold
- fold enrichment of Oar in the α-PopC co-IP, with PopC over without PopC (iBAQ ratio), ΔtonB E. coli: 15.1 fold
B1: Oar expressed in E. coli (natural protein, M. xanthus, UniProt P38370 27-1061, looked up)
chain: QSSTIIGTVIDAQSRQPAADVVVTATSPNLQGEQTVVTDAQGNYRIPQLPPGDYTLRFEKEQFKPYARSAIQLRLNRTIRVNVELLPEALGEVVEIVGAPPTIDVGSTTMGVNVDQEFIKRIAVARPGGKGGATRSFESLAELAPGAQNDNYGVSINGSTSPENGYVVDGLSTNDPAFGVNASPLSIEFVQDVNIITGGYMPEFGRSTGGVINAVTRSGSNEFHGSVFANWTPGTLEGTRKQIREEGTVITGQNQLQNLGDFGATLGGPILKDKLWFFAGFAPSFTRYQHTRTLNALRVDDEGNTIKDETDFTVADAIPGSARKYYADSRTIQYMGKLTYLINQDHNVSFALNGTPTSTGGLGKLSVNPQSGGLPGVLATRPGDFGLTETKANTTSLALKYAGAFADKKVLVDANLGWFHQTASTLPGDGSNLGDRTGLAGYSRMVYTTPRALTLFEALPEGQEGACGSTPEEQLVRSPVTGYGVGGPGFMSDQTLDRYQANAKATYLLNALGTHVFKAGVDVELLSFDQVKAYGGGVFFQEGSNYGVAGQGPAVHDARRYGYQTGPDSAVTQFTQVAKTTSTTVGGFLQDSWSIANRVTLNLGVRYDVQALYGGNGDLSLLLGNQWSPRIGAIVDPFANGRAKVFVNFARYYEQVPLNLMDRAFPGENRISARRSLAEPGQGTATSCDPSSFESQQATCNTDSNLLAIPESSRNVNRFYTGGTVGGTPVDPDIKAQSSDEIVVGAEYEVLANTRLGASYTHKDMNSVIEDMSRDDGNTYFLGNPGSGFAGEFPTPVRNYDNVTVYLNRTFADGWLAQANYTWSRLYGNYPGLFRPETGQLDPNILSDFDLIELLENRTGLLPFDRTHQIKVFGAKEFNISNALSASVGVSYRGSSGTPINYWGSHWAYLQDESFVLPRGAGGRTPWINTIDSNIGVNYRVSKDSVVSFTLDVFNLFNFQGVNTVDQTYTLRDIKPIPGGTPADLENLPGRVEFQDQAPRDEPFGSVDGDVNKNFKNPLSYQAPRQVRFGIRYTF
notes: Oar (MXAN_1450) of Myxococcus xanthus, expressed as 'native' Oar in E. coli; no tag is named; 'Native' probably means the untagged protein with its own signal peptide; it was found enriched in the E. coli outer membrane; also called native Oar; source: E. coli Rosetta-2(DE3) (WT or ΔtonB), IPTG-induced, in isolated membranes / cell fractions
